In paper PMC4890720 (Methods in molecular biology (Clifton, N.J.), 2012):

Target: thioredoxin (1–73) (E. coli, UniProt P0AA25 2-74 = thioredoxin)
Assay: magic angle spinning solid-state NMR

Sequence of thioredoxin (1–73) (P0AA25 2-74): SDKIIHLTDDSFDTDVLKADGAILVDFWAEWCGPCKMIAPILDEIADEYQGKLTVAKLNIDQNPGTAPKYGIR

binding result: binds
Binder: GIPTLLLFKNGEVAATKVGALSKGQLKEFLDANLA (domain or fragment, E. coli, UniProt P0AA25 75-109, looked up) [thioredoxin (74–108)]
